experiment: soluble on expression in E. coli; label from the status in PepcDB or PDB records

Row | Sequence | soluble on expression in E. coli
1 | MFSAKKLSPADKLKNISSMLEEIVEDTTVPRNIRAAADNAKNALHNEEQELIVRSATAIQYLDDISEDPNMPIHTRTQIWGIVSELETIK | soluble
2 | MFSEKFFTASFGPDDEQPAIKAAANNAAPIFHLFILEFLLFKYQLLSKDSEYPYLLIRAGDNNRPKKAERRDKASKMWSRNQEKHGSKKSEKSNQNKNFYVREFFSFGASSKKFPNHVFRDVF | not soluble
3 | MFSGHQLKTARLSKGITQSELGRLLHVNKMTISNWEKGKNIPNEKHLNALLHLFNVTSDYFDPNYRLLTPYNQLTISNKEKVIGYSERLLNHQIDKKSKDLIDKPSQLYAYRVYESLSAGTGYSYFGDGNFDVVFYDEQLEYDFASWVFGDSMEPTYLNGEVVLIKQNSFDYDGAIYAVEWDGQTYIKKVFREDEGLRLVSLNKKYSDKFAPYSEEPRIIGKIIANFRPLEI | not soluble
4 | MFSIQQPLLVFSDLDGTLLDSHSYDWQPAAPWLTRLREANVPVILCSSKTSAEMLYLQKTLGLQGLPLIAENGAVIQLAEQWQEIDGFPRIISGISHGEISLVLNTLREKEHFKFTTFDDVDDATIAEWTGLSRSQAALTQLHEASVTLIWRDSDERMAQFTARLNELGLQFMQGARFWHVLDASAGKDQAANWIIATYQQLSGKRPTTLGLGDGPNDAPLLEVMDYAVIVKGLNREGVHLHDEDPARVWRTQREGPEGWREGLDHFFSAR | soluble
5 | MFSKTVVVLLMVVPAISLAQPASPLVLKKSHGAFCHLCEDLIKDGKEAGDVALDVWLDEEIGSRCKDFGVLASECFKELKVAEHDIWEAIDQEIPEDKTCKEAKLC | not soluble
6 | MFSPLGQFKHIVCPFLRTGRKCQSRNCFFSHDFQNSTKISPPYSENVEGYPKVKIEKSLPYKYDNCKLSICVPIVTTCIPYHSVENLNFNIRQNISTTLNLEKTNDSIKETKNENFRMDVLETYKCKQLNHQTTHLPTNTVLKKRSLFNDAISIVPNKKKQLVSAISTNSDSQGASSNIIPTPKYDSNSPAGHELRKRMTHLLYESYKDLGYSNAESSMLALLDEKNICETANSKMIYSSSCKSKILSLKKAPKKNEIQGSTPDEKLESLVHSEEELILWGYNIGDVAPVNPPDELRECDRCGTRFADPRGPCTYHWGKLFREKQGGEKIRTYTCCGVKEGDSSGCIIEDNHVFKYRHLPYLASVHPFSYLPDSTNSKQLSHCALDCELCYTTNGMELARLTVVAKESIIMDVFIKPKGKILSLNTRFSGIHDAKELESGITMDQMYIKIKELGMNKNTILIGHGLENDLNAMRLIHKRVIDTALLFTHARGPPFRYSLKYLTKKYLGTTIQTSTHDSEEDAVSALQLVFYKTKSNESQN | soluble
7 | MFTGFGAASFSAPAKAAAQTNTLSENTNQSAAELVKNLYNTAYKGEMPQQAQGLTINKSTKGDVHAAFGEPERPVGGDNRFDLYHWNMGQPGYGFSYHKDMTISEIRYFGTGVERQLNLGGVTPEVLQKQLGPVNRVLTVPFTDEIDYVYDTGRYELHFVIGTDQTADHVNLKAKLEHHHHHH | soluble
8 | MFYKFLLFDLDHTLLDFDAAEDVALTQLLKEEGVADIQAYKDYYVPMNKALWKDLELKKISKQELVNTRFSRLFAHFGQEKDGSFLAQRYQFYLAQQGQTLSGAHDLLDSLIERDYNLYAATNGITAIQTGRLAQSGLAPYFNQVFISEQLQTQKPDALFYEKIGQQIAGFSKEKTLMIGDSLTADIQGGNNAGIDTIWYNPHHLENHTQAQPTYEVYSYQDLLDCLDKNILEKITF | not soluble
9 | MGAAKASLGRIFPESSILFLCDMQEKLRDRILYFPQIVSMAARMLKVAQMLEIPVLLTEHYPQGLGPTVPELGAQGLRTMSKTSFSMVPPLQQELDKLPQLQSVLLRGIETQGCILHTALDLLDRGLQVHVAVDACSSQSEMNRLVALARMQQSGVFLSTSEVLILQLVKDAAHPQFKEIQKILKEPVTDIGLLGFFQGKKNSLLPNSRT | not soluble
10 | MGAIKVEIKSGALLISPSEFKERYLPTLQDMPVLAFVRNIEAPKSWYSYLISNIEDQKSSIFPTNLPRILEISRRYFSSVKNGIVVIDALEYLTIYNGFEAIAKFLATLRDFAILDNGTVIIITEKKAWKDREWALLTSLLGKLEHHHHHH | not soluble
11 | MGARVTRALRNFNVEKRAEREISKRKPSMAPKHPSTRDLLQEHRSQYPEIEEVVSKKDNKLLSLLRDVYVDSKDPVPALPVKVEPRQEPKEFRLPIGNHFDKNITDIPKGKITVVEALTLLNNHKLSPETWTAEKIAQEYYLELKDVNSLLKYFVTFEVKILPPEDRKAIQSK | soluble
12 | MGCLLFLLLWALLQAWGSAEVPQRLFPLRCLQISSFANSSWTRTDGLAWLGELQTHSWSNDSDTVRSLKPWSQGTFSDQQWETLQHIFRVYRSSFTRDVKEFAKMLRLSYPLELQVSAGCEVHPGNASNNFFHVAFQGKDILSFQGTSWEPTQEAPLWVNLAIQVLNQDKWTRETVQWLLNGTCPQFVSGLLESGKSELKKQVKPKAWLSRGPSPGPGRLLLVCHVSGFYPKPVWVKWMRGEQEQQGTQPGDILPNADETWYLRATLDVVAGEAAGLSCRVKHSSLEGQDIVL | soluble
13 | MGDASTQLSSYVKQVQTGHKPSTKEIVRFSKLFEDQLALEHLDRPQLVALCKLLELQTFGTNNLLRFQLLMKLKSIKADDEIIAKEGVTALSVSELQAACRARGMRSLGLTEEQLRQQLTEWQDLHLKENVPPSLLLLSRTFYLIDVKPKPIEIPLSGEAPKTDILVELPTFTESKENMVDLAPQLKGTKDEDFIQPPPVTSSPITPSTPISLPKGPITSSEEPTLQAKSQMTAQNSKASSKGA | soluble
14 | MGDFREVLFYHSETKHYPYRFARSLGYLDWENQPNPFRFWEGTERLDLPLLKDPSHPYEALYDYGLVNTEEFNVKSLSKFLELALGLSAWKAIPGSRWSVRMNPSSGNLHPTECYVIIPHLGGLQGVFHYNPFLHALEKRADIPYELSQKIKDFFGTEGFILILTSIPWRESWKYGERAYRYCLLDTGHAIGSVRFSANLKGWKVKYLNALSDKDLEILLGFDRVQWVEGEEEFPELALFVFPKEVQDVPRTIPESIINEFKKLNFYGRPNVLSKERVIWEIIYRAIKETEKPRTEEFRVIYGNPPILNLVPSYMSAEEVIRKRRSGMAYDGKTYILRELFIHALDKTLPRDNYSPFDVEIGLPFVNLFIFVNRVENLPKGLYCFVRNEELLKDLKEITSSEFLWEKVFEDFPLYLLKTGDFREVAGFVACAQDIASDSAFSLGMISLFEPVLREEPWFYRNLHWEAGLIGQVLYLEATAHNLNGTGIGCFFDDAMHEVLGISDKTFQDLYHFTFGKAVEDPRIQTIEPYYHLKRERR | not soluble
15 | MGEAYAEVFPDPDGISGHVKGVVDINAPPEKVWRIMTDCAAAKVMITTLAVCRIVEGDMARGWDIREHVTRRNLVFPGLRIVFRSDYEPYSRIKFKLVGGDLKVEQGEWKLQALDGGRRTRVLYDNRLAVDWPVPKALIREALRKDTPKVLMNLKRLCELEHHHHHH | not soluble
16 | MGEISLGEVFHLKSGKYLKADERFEDGKFPYYGAGIESTSFVNEPNTKGDTLSMIANGYSIGNIRYHTIPWFNGTGGIAMEALKPNKTYVPFFYCALKYMQKDLKERFKRDESPFISLKLAGEIKVPFVKSFALQRKAGKIIYLLDK | not soluble
17 | MGEVVKLVTFLGLGKYEESEIKINGNLLDGCVKNDDSQDIFCVRQSIFPLALIEYLNHIGKQVETIFFLTKTVKESKTWDECRRFLRSNIKDFEIPERRIFK | not soluble
18 | MGEYYHATVNGVVEYGAFVDLSEHVSGLIHESTYSGDPDLAVDDDVIVHLSAVRDNGDLSFEFVDPEEYRTEQRSHAYERTTADAVGLEHHHHHH | soluble
19 | MGFFDDKQDFLEETFAKYPPEGRRAAIMPLLRRVQQEEGWIRPERIEEIARLVGTTPTEVMGVASFYSYYQFVPTGKYHLQVCATLSCKLAGAEELWDYLTETLGIGPGEVTPDGLFSVQKVECLGSCHTAPVIQVNDEPYVECVTRARLEALLAGLRAGKRLEEIELPGKCGHHVHEVEVLEHHHHHH | soluble
20 | MGGEDDELKGLLGLPEEETELDNLTEFNTAHNKRISTLTIEEGNLDIQRPKRKRKNSRVTFSEDDEIINPEDVDPSVGRFRNMVQTAVVPVKKKRVEGPGSLGLEESGSRRMQNFAFSGGLYGGLPPTHSEAGSQPHGIHGTALIGGLPMPYPNLAPDVDLTPVVPSAVNMNPAPNPAVYNPEAVNEPKKKKYAKEAWPGKKPTPSLLI | soluble
21 | MGGFGLKYRPVPIKRVLPGSIAQESDLQEGDLILSINGQKISDIFDYRFLIADENLVLEVQKKNGEIWEIEIEKDEYEDLGIEFENLMIDDTKSCRNKCIFCFIDQLPKGMRETLYFKDDDSRLSFFMGNYVTLTNMSYDDIDRIIKYKMSPINVSVHTSNPELRVYMLRNKTAGDVMDKIKRLIEGGIKVNAQIVLVRGVNDGKELDRTLKDLSALYPGLNSISVVPVGITKYREGLYELKPFDMESSREVIKQVEAWQMELLSKYGSRIVFIADEFYIMAGLEIPDYCVYEDFPQIENGVGLVAMLKKEFDDYFEELELKLENKREVSIATGVSSYKYIKEMIDILENKYKNLYVHVYKIKNNFFGENVTVTGLLTGQDIERQLSGKNLGRELLLSESMLKSGERVFLDDYTVEMLEDKLKTKITIVRNNGKDFIEKVLGIVL | soluble
22 | MGGGPALNRDSSRHARPFISSPVKTLAIIPAFNEAQAIGPVLGDLPDGWVDEVVVVNNASTDATKANARAAGATVVDEPQQGYGAACLRGIAYAETRQPDVVVFLDGDYSDHPEELPRLVEPIAADEADFVVGSRIRGDAEPGALLPQAQVGNRFACSLMARLWGADYTDLGPFRAIRFRDLLALDMQDETFGWTIEMQIRALEAGLRVEEVPVSYRRGIGPSKITGTLSGTVKASAKILWTIGRMAATTHRRAPRLRERVDRARTDAPTPNPGGLEHHHHHH | not soluble
23 | MGGGRMGQHVETLVIGAGPAGLTTAYTLAKAGRGVTVLEMDETYVGGISRTVDYKGFKFDIGGHRFFSKSQEIVDLWNEILPDDFIDRPRLSRIYYREKFYAYPLKAFEALANLGVWTAAKCMASFGWAKLTPIAAPTTFHQWVRNQFGEKLFSIFFKTYTEKVWGMSCDEISADWASQRIKGLDLGAAIIDGVKRSLGLRGKAAEGGPKTLIESFRYPRKGPGMMWEACADKVMALGGDVRMGRKVDGLHFDKIAKLWTVAVTCADGRKEIYTADNVVSSAPIRELMQSISPTPISVFHAGELMYRDFITVVLIGKPQKELPDNWIYIHDPSVKVGRVQNFRSWSPEMIPDGVSTCLGLEYFCFEGDGLWVTSDEELVAQAKREIGKIGLMAPADVYDACVVRQHKAYPVYDDAYAEHVKMIRLDLKMHFPGLHLVGRNGMHKYNNQDHAMMTGLLTAENIIAGETLHDVWEVNEDAEYGEAGVSGARQALRSERAVPTKVAALEHHHHHH | not soluble
24 | MGGLQQRCLWEVVTPRLSGAASLNGEQRADVCVIGAGFTGLSAALHLLEAGRSVCVLEAYEVGHGGSGRNVGLINAGTWIPPDEVVATLGAEQGEKLNAVLGRAPALVMETIERLGIDCQLRREGTLHMSHNASGVADLQRRHAQWTRRGAPLELLTGAACHEACGTRRISAALLDRRAGTLNPMAYSRGLATAVVQRGGQLYQRSPVLALERQGALWAVRSSAGAVLAEQVVIASNAYTEGEWTNLRRHFFPGYYYQVASAPLHGAAAERILPHGQGSWDTRTVLSSIRRDAQGRLLLGSLGNGANKPAWFLRQWADRIQSHYFPDLGQVNWEYSWTGCIAFTPDHLMRLFEPAEGLLAVTGYNGRGVTTGTVVGKAFADYLLSGERATLPLPFSDMKPVPAARLRSCAYEMGFSLYHAGQCLRVVLLEHHHHHH | soluble

From the DeepSol protein solubility set
